Measured values: patent EP4713368A1 (dated 2026)
Changes are numbered by the printed parent chain. Blank lines part the entries; values can stand above or below the binder they belong to.

Biological target: T1, human CD28 (human, UniProt P10747 19-152, limits assumed)
T1 construct: also called Cluster of Differentiation 28; Tp44
Experiment: selection from yeast-presented synthetic human antibody libraries

binding result: binds
B1: Ab No. 27 (antibody, V domains shown)
VH: EVQLLESGGGLVQPGGSLRLSCAASGFTFSNYAMSWVRQAPGKGLEWVSAISGSGGSTYYADSVKGRFTISRDNSKNTLYLQMDSLRAEDTAVYYCASFGDIAVAGAGFVNWGQGTLVTVSS
VL: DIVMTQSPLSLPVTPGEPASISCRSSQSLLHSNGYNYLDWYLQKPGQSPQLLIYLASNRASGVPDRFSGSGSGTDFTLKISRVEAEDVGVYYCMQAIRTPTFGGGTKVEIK
notes: IgG format

binding result: binds
B2: Ab No. 24 (antibody, V domains shown)
VH: QITLKESGPTLVKPTQTLTLTCTFSGFSLSTSGVGVGWIRQPPGKALEWLALIYWNDDKRYSPSLKSRLTITKDTSKNQVVLTMTNMDPVDTAVYYCARSFDQGIAVWGPFDYWGQGTLVTVSS
VL: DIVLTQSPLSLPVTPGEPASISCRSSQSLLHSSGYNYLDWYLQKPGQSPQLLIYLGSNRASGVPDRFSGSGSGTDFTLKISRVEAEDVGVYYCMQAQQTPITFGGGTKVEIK
notes: IgG format

binding result: binds
B3: Ab No. 10 (antibody, V domains shown)
VH: QVQLVQSGAEVKKPGSSVKVSCKASGGTFSSYAISWVRQAPGQGLEWMGGIIPISGTANYAQKFQGRVTITADESTSTAYMELSSLRSEDTAVYYCARDKGGLGRGGRYWGQGTLVTVSS
VL: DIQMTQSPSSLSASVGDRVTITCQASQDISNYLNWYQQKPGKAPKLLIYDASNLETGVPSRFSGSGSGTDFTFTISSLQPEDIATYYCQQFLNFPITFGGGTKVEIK
notes: IgG format

binding result: binds
B4: Ab No. 18 (antibody, V domains shown)
VH: B3 VH with D99P, K100E, G101K, L103F, G104T, R105S, G107L, R108V, Y109D
VL: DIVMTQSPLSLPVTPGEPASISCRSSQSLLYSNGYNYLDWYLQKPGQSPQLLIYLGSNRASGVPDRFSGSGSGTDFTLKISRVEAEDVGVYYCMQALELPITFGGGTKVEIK
notes: IgG format

binding result: binds
B5: Ab No. 22 (antibody, V domains shown)
VH: B3 VH with A97V, D99A, K100R, G102I, L103V, R105P, G106D, G107E, R108G, Y109P
VL: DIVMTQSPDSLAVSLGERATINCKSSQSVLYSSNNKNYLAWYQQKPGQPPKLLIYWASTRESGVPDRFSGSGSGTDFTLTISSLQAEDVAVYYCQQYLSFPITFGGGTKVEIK
notes: IgG format

binding result: binds
B6: Ab No. 19 (antibody, V domains shown)
VH: B3 VH with D99Q, K100Y, G102T, L103F, G104A, R105F, G106Y, G107S, R108D
VL: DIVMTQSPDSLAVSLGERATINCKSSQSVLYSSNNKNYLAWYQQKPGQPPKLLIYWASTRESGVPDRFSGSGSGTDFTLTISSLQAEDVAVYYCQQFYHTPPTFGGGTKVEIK
notes: IgG format

binding result: binds
B7: Ab No. 16 (antibody, V domains shown)
VH: B3 VH with D99L, K100Y, G101H, G102I, L103G, G104T, R105T, G107Y, R108P
VL: DIQMTQSPSSLSASVGDRVTITCRASQSISSYLNWYQQKPGKAPKLLIYGASSLQSGVPSRFSGSGSGTDFTLTISSLQPEDFATYYCQQSYYDPTFGGGTKVEIK
notes: IgG format

binding result: binds
B8: Ab No. 23 (antibody, V domains shown)
VH: B3 VH with A97V, D99A, K100R, G102I, L103V, R105P, G106D, G107E, R108G, Y109P
VL: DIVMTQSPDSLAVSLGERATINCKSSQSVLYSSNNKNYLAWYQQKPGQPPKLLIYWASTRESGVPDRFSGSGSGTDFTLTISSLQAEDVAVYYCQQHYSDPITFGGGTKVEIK
notes: IgG format

binding result: binds
B9: Ab No. 25 (antibody, V domains shown)
VH: EVQLVESGGGLVQPGRSLRLSCAASGFTFDDYAMHWVRQAPGKGLEWVSGISWSSGSIGYADSVKGRFTISRDNAKNSLYLQMNSLRAEDTAVYYCAKAWGRVGRANYYYYGLDVWGQGTTVTVSS
VL: EIVLTQSPATLSLSPGERATLSCRASQSVSSYLAWYQQKPGQAPRLLIYDASNRATGIPARFSGSGSGTDFTLTISSLEPEDFAVYYCQQYSNFPPITFGGGTKVEIK
notes: IgG format

binding result: binds
B10: Ab No. 26 (antibody, V domains shown)
VH: B9 VH with K65E
VL: EIVLTQSPATLSLSPGERATLSCRASQSVSSYLAWYQQKPGQAPRLLIYDASNRATGIPARFSGSGSGTDFTLTISSLEPEDFAVYYCQQYANHLTFGGGTKVEIK
notes: IgG format

binding result: binds
B11: Ab No. 13 (antibody, V domains shown)
VH: QVQLVQSGAEVKKPGSSVKVSCKASGGTFSSYAISWVRQAPGQGLEWMGGIIPISGTANYAQKFQGRVTITADESTSTAYMELSSLRSEDTAVYYCARGGIALSAGPSNIWGQGTLVTVSS
VL: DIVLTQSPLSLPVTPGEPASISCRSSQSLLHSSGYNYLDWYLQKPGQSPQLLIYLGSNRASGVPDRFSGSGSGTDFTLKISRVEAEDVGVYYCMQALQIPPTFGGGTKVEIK
notes: IgG format

binding result: binds
B12: Ab No. 15 (antibody, V domains shown)
VH: B11 VH with G100S, I101L, A102S, S104V, A105S, G106Y, P107G, S108P, N109A, I110V
VL: EIVMTQSPATLSVSPGERATLSCRASQSVSSNLAWYQQKPGQAPRLLIYGASTRATGIPARFSGSGSGTEFTLTISSLQSEDFAVYYCQQYITHPPTFGGGTKVEIK
notes: IgG format

binding result: binds
B13: Ab No. 14 (antibody, V domains shown)
VH: QVQLVQSGAEVKKPGSSVKVSCKASGGTFSSYAISWVRQAPGQGLEWMGGIIPISGTANYAQKFQGRVTITADESTSTAYMELSSLRSEDTAVYYCARGSLSLAAETPLWGRGTLVTVSS
VL: EIVLTQSPATLSLSPGERATLSCRASQSVSSYLAWYQQKPGQAPRLLIYDASKRATGIPARFSGSGSGTDFTLTISSLEPEDFAVYYCQQYLNFPITFGGGTKVEIK
notes: IgG format

binding result: binds
B14: Ab No. 2 (antibody, V domains shown)
VH: QVQLVQSGAEVKKPGASVKVSCKASGYTFTSYAMHWVRQAPGQRLEWMGWINAGTGATKYSQKFQGRVTITRDTSASTAYMELSSLRSEDTAVYYCARDLVHSYGLLPGWGQGTLVTVSS
VL: B13 VL with K53N, L92S, F94W, I96F
notes: IgG format

binding result: binds
B15: Ab No. 21 (antibody, V domains shown)
VH: QVQLVQSGAEVKKPGSSVKVSCKASGGTFSSYAISWVRQAPGQGLEWMGGIIPISGTANYAQKFQGRVTITADESTSTAYMELSSLRSEDTAVYYCTRDLGFGAIRDTWGQGTLVTVSS
VL: B13 VL with Y36F, K53N, Y91S, F94L
notes: IgG format

binding result: binds
B16: Ab No. 17 (antibody, V domains shown)
VH: QVQLVQSGAEVKKPGSSVKVSCKASGGTFSSYAISWVRQAPGQGLEWMGGVIPISGTANYAQKFQGRVTITADESTSTAYMELSSLRSEDTAVYYCARLYHLALAPAWGQGTLVTVSS
VL: B13 VL with L4M, K53N, Y91A, L92V, F94L
notes: IgG format

binding result: binds
B17: Ab No. 20 (antibody, V domains shown)
VH: B15 VH
VL: B13 VL with K53N, Y91S, L92N, F94L
notes: IgG format

binding result: binds
B18: Ab No. 12 (antibody, V domains shown)
VH: QVQLVQSGAEVKKPGSSVKVSCKASGGTFSSYAISWVRQAPGQGLEWMGGIIPISGTANYAQKFQGRVTITADESTSTAYMELSSLRSEDTAVYYCARGGIALHRSSSGLLWGRGTLVTVSS
VL: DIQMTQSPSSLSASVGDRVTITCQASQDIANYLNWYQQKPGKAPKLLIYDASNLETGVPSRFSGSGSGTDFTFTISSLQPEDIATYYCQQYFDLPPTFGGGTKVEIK
notes: IgG format

binding result: binds
B19: Ab No. 1 (antibody, V domains shown)
VH: QVQLVQSGAEVKKPGASVKVSCKASGYTFTSYAMHWVRQAPGQRLEWMGWINAGTGATKYSQKFQGRVTITRDTSASTAYMELSSLRSEDTAVYYCAKDIGSGFYELSLDYWGQGTLVTVSS
VL: DIQMTQSPSSVSASVGDRVTITCRASQGISSWLAWYQQKPGKAPKLLIYAASNLQSGVPSRFSGSGSGTDFTLTISSLQPEDFATYYCQQIISLPLTFGGGTKVEIK
notes: IgG format

binding result: binds
B20: Ab No. 11 (antibody, V domains shown)
VH: B15 VH with T97A, L100R, F102L, A104F, I105P, R106H, D107L, T108V
VL: B19 VL with N53S, I91G, I92N, L96I
notes: IgG format
